Test results as given in patent US20070224124A1 (UNIVERSITY OF SOUTH FLORIDA, published 2007).

T1: mSosI ( (endogenous in murine ES …, UniProt Q62245 1-1319))
T1 construct: Its expression in ES cells was confirmed by immunoblot of whole cell lysate; also called mSos1
T1 sequence (looked up): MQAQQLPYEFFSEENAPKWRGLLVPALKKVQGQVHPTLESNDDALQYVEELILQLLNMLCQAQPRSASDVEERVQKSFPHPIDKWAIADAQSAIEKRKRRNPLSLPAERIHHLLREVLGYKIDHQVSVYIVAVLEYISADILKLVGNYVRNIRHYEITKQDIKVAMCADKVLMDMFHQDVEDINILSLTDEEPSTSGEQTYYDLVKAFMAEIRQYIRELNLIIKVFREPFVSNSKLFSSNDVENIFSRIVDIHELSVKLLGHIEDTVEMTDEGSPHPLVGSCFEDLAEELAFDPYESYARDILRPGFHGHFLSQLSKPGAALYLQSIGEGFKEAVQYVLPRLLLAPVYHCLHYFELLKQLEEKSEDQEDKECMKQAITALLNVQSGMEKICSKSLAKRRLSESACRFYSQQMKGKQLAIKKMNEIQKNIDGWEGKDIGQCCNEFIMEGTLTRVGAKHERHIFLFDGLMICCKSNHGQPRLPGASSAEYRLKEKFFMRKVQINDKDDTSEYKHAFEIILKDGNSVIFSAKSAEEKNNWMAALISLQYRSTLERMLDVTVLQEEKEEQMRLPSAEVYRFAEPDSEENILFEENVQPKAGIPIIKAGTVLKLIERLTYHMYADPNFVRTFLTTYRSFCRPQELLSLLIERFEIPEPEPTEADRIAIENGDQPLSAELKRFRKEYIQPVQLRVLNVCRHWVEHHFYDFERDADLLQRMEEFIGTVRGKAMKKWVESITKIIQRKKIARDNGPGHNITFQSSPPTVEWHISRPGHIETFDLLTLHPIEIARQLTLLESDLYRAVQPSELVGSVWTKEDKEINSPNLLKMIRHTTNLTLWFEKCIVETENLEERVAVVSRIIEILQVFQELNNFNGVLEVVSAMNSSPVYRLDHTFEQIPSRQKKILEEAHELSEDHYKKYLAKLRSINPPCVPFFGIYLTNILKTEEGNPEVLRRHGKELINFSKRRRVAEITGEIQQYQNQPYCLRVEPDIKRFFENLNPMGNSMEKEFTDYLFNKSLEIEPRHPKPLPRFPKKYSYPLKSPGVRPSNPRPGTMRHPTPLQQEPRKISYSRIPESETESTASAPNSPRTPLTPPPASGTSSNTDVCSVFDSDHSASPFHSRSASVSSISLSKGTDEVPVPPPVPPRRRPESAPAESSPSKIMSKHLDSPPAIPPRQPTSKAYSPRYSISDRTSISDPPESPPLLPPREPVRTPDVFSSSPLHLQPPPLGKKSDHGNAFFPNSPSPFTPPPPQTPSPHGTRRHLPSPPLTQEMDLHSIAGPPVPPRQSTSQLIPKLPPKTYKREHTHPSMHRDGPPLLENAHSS

B1: Shc adapter protein (other, UniProt P98083 1-579, looked up)
chain: MDLLPPKPKYNPLRNESLSSLEEGASGSTPPEELPSPSASSLGPILPPLPGDDSPTTLCSFFPRMSNLKLANPAGGRLGPKGEPGKAAEDGEGSAGAALRDSGLLPLLQDMNKLSGGGGRRTRVEGGQLGGEEWTRHGSFVNKPTRGWLHPNDKVMGPGVSYLVRYMGCVEVLQSMRALDFNTRTQVTREAISLVCEAVPGAKGATRRRKPCSRPLSSILGRSNLKFAGMPITLTVSTSSLNLMAADCKQIIANHHMQSISFASGGDPDTAEYVAYVAKDPVNQRACHILECPEGLAQDVISTIGQAFELRFKQYLRNPPKLVTPHDRMAGFDGSAWDEEEEEPPDHQYYNDFPGKEPPLGGVVDMRLREGAARPTLPSAQMSSHLGATLPIGQHAAGDHEVRKQMLPPPPCPGRELFDDPSYVNIQNLDKARQAGGGAGPPNPSLNGSAPRDLFDMKPFEDALRVPPPPQSMSMAEQLQGEPWFHGKLSRREAEALLQLNGDFLVRESTTTPGQYVLTGLQSGQPKHLLLVDPEGVVRTKDHRFESVSHLISYHMDNHLPIISAGSELCLQQPVDRKV
notes: Its expression in ES cells was confirmed by immunoblot of whole cell lysate
B2: s-SHIP (stem-SHIP; SH2-lacking isoform of SH2-containing inositol 5'-phosphatase, approximately 104 kd) (enzyme, mouse, UniProt Q9ES52-5 1-928, looked up)
chain: MVAKLSQLTSLLSSIEDKVKSLLHEGSESTNRRSLIPPVTFEVKSESLGIPQKMHLKVDVESGKLIVKKSKDGSEDKFYSHKKILQLIKSQKFLNKLVILVETEKEKILRKEYVFADSKKREGFCQLLQQMKNKHSEQPEPDMITIFIGTWNMGNAPPPKKITSWFLSKGQGKTRDDSADYIPHDIYVIGTQEDPLGEKEWLELLRHSLQEVTSMTFKTVAIHTLWNIRIVVLAKPEHENRISHICTDNVKTGIANTLGNKGAVGVSFMFNGTSLGFVNSHLTSGSEKKLRRNQNYMNILRFLALGDKKLSPFNITHRFTHLFWLGDLNYRVELPTWEAEAIIQKIKQQQYSDLLAHDQLLLERKDQKVFLHFEEEEITFAPTYRFERLTRDKYAYTKQKATGMKYNLPSWCDRVLWKSYPLVHVVCQSYGSTSDIMTSDHSPVFATFEAGVTSQFVSKNGPGTVDSQGQIEFLACYATLKTKSQTKFYLEFHSSCLESFVKSQEGENEEGSEGELVVRFGETLPKLKPIISDPEYLLDQHILISIKSSDSDESYGEGCIALRLETTEAQHPIYTPLTHHGEMTGHFRGEIKLQTSQGKMREKLYDFVKTERDESSGMKCLKNLTSHDPMRQWEPSGRVPACGVSSLNEMINPNYIGMGPFGQPLHGKSTLSPDQQLTAWSYDQLPKDSSLGPGRGEGPPTPPSQPPLSPKKFSSSTANRGPCPRVQEARPGDLGKVEALLQEDLLLTKPEMFENPLYGSVSSFPKLVPRKEQESPKMLRKEPPPCPDPGISSPSIVLPKAQEVESVKGTSKQAPVPVLGPTPRIRSFTCSSSAEGRMTSGDKSQGKPKASASSQAPVPVKRPVKPSRSEMSQQTTPIPAPRPPLPVKSPAVLQLQHSKGRDYRDNTELPHHGKHRQEEGLLGRTAMQ
notes: also called 8-SHIP protein isoform; 104-kd and 97-kd proteins

Columns and labels:
[1] = target: B2; experiment: co-immunoprecipitation from ES-TL1 cell lysate with P2C6 anti-SHIP antibody, immunoblot for Shc
Text: (§1) FIG. 6 illustrates how ES cells express the 8-SHIP protein isoform that associates with the Grb2 adapter protein. (A) Immunoprecipitation and immunoblot detection of s-SHIP in ES cell lysates. […] No tyrosine phosphorylation of these proteins was detected when they were probed with the 4G10 anti-phosphotyrosine antibody. For comparison, lysates from 293T cells transfected with SHIP cDNA (lane 1) and s-SHIP cDNA (lane 2) were included in the blots. To further assess the tyrosine phosphorylation status of s-SHIP, timed LIF stimulation studies were performed. ES-TL1 cells incubated for 5 hours without LIF were stimulated with 2000 U/mL LIF for 0, 2, 5, or 10 minutes and were rapidly lysed. Equal amounts of total protein were immunoprecipitated with the P2C6 antibody and probed separately with the P2C6 and 4G10 antibodies (lanes 6-9). No tyrosine phosphorylation of s-SHIP was detected at any time point with the 4G10 antibody. For comparison, A20 8-lymphoid cells were stimulated with antiIgG antibody for 0 or 5 minutes, lysed, immunoprecipitated with P2C6, and probed with P2C6 and 4G10 (lanes 3, 4), showing prominent tyrosine phosphorylation of SHIP at 5 minutes. Molecular mass standards are indicated on the right. (B) s-SHIP associates with Grb2 but not Shc in ES cells. ES-TL1 cell lysates were prepared and immunoprecipitated with the […] anti-SHIP monoclonal antibody. […]

mSosI = target: T1, mSosI; experiment: co-immunoprecipitation from ES-TL1 cell lysate with P2C6 anti-SHIP antibody, immunoblot for mSosI
Text: as §1

| Binder | binding result [1] | binding result (mSosI) |
| --- | --- | --- |
| B1 | no binding | – |
| B2 | – | no binding |
